This note sets out measurements from publication PMC4853763.

In the assay the target is E6/e6ap complex with the wt e6ap(1-16) peptide construct (HPV16 | human) (UniProt P03126). Briefly: ITC.

A word on the stoichiometry N: it is a count of units in the complex or per binding partner.

“p53 core (DNA binding) domain (from UniProt P04637 94-311) (domain or fragment)” yielded a dH of -19.1 kcal/mol and a stoichiometry N of 0.516.
